# Measurements from patent US12077566.
# Biological target: EGFR extracellular domain (with an amino acid sequence of 25-645) (human) (UniProt P00533)
# Assay: SPR, Biacore T200; EGFR extracellular domain on CM5 chip, rLZ-8 protein as analyte
substance,measurement,value
rLZ-8 (D20H/E68K) (from UniProt P14945 1-111),Kd,6.43 nM
